Assay results as given in patent US20250002610A1 (Genmab, published 2025).

Columns and labels:
[1] = target: T1, human DR4 (Death Receptor 4), cell surface expressed on human tumor cell lines (human, UniProt O00220 24-468); experiment: flow cytometry, MDA-MB-231 cells, N = 2
T1 construct: also called TNFRSF10A; TRAIL-R1
T1 sequence: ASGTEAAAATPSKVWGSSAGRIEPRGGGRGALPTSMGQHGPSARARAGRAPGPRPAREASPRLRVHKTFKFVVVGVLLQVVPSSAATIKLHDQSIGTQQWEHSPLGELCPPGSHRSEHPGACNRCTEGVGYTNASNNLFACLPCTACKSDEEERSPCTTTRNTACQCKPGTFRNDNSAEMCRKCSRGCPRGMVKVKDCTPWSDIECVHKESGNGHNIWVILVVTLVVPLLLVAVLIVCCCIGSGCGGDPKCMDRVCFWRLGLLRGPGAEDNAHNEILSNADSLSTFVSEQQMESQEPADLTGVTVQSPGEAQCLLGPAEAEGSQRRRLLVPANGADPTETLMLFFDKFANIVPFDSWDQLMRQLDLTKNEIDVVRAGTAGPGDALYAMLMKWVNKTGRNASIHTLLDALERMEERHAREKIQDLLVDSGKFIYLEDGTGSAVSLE

[2] = target: T1, human DR4 (Death Receptor 4), cell …; experiment: flow cytometry, MDA-MB-231 cells, average ± SEM
[3] = target: T1, human DR4 (Death Receptor 4), cell …; experiment: flow cytometry, MDA-MB-231 cells, N = 1
[4] = target: T1, human DR4 (Death Receptor 4), cell …; experiment: flow cytometry on OPM-2 cells (endogenous DR4), gMFI PE
Method: Immunol. […] Human lung fibroblasts and CAFs (50,000 cells/well) were seeded in 96-Well round bottom plates (Greiner Bio-one, Cat #650101). Antibody dilutions were prepared using fluorescence-activated cell sorting (FACS) buffer, consisting of phosphate buffer saline (PBS, Lonza, Cat #BE17-517Q)+1% Bovine Serum Albumin (BSA, Roche, Cat #10735086001)+0.02% Sodium Azide (Bio-World, Cat #41920044-3). Plates were centrifuged, supernatant was removed, cells were resuspended in 50 μL of human Fc Block (BD, Cat #564220, diluted 1:100 in FACS buffer) and 50 μL of viability stain TO-PRO-3 Iodide (Thermo Fisher, Cat #T3605, diluted 1: 25,000 in FACS buffer), and incubated for 15 min at 4° C. Plates were washed three times with FACS buffer. […] Antibody binding to viable cells (TO-PRO-3 negative) was analyzed by flow cytometry on a FACSCelesta™ (BD biosciences) and data were processed using FlowJo_v10.8.1 (FlowJo LLC). Geomean fluorescence intensity, gMFI, was determined and visualized using GraphPad Prism. Binding curves were analyzed using nonlinear regression analysis. […]
Binding of DR4-specific antibodies BisG1-b12-FEAL/DR4-T1014A04-FEAR, BisG1-b12-FEAL/DR4-chCTB007-FEAR, IgG1-DR4-chCTB007-FEAR and IgG1-DR4-T1014A04-FEAR to cell surface expressed human DR4 was analyzed by flow cytometry using the human cancer cell line OPM-2 (DSMZ, Cat #ACC 50), which endogenously expresses DR4.

[5] = target: T1, human DR4 (Death Receptor 4), cell …; experiment: flow cytometry, MDA-MB-231 cells, average ± SEM; MDA-MB-231 cells, up to 90 µg/mL, average of N = 2
[6] = target: T1, human DR4 (Death Receptor 4), cell …; experiment: flow cytometry, MDA-MB-231 cells, N = 1; MDA-MB-231 cells, up to 90 µg/mL, N = 1
[7] = target: T1, human DR4 (Death Receptor 4), cell …; experiment: flow cytometry, MDA-MB-231 cells, N = 2; MDA-MB-231 cells, up to 90 µg/mL, N = 2

B1: IgG1-DR4-chCTB007-FEAR (antibody, V domains shown)
VH: EVQLQQSGAELVKPGASVKLSCTASGFNIKDTYMHWVKQRPEQGLEWIGRIDPANGNTKYDPKFQGKATITADTSSNTAYLQLSSLTSEDTAVYYCAYYYVSNAWFTYWGQGTLVTVSA
VL: DIQMTQSPASLSVSVGETVTITCRASENIYSNLEWYQQKQGKSPQLLVYAATNLADGVPSRFSGSGSGTQYSLKINSLQSEDFGSYYCQHFWGTWTFGGGTKLEIKR
notes: Prior art DR4 clone (US20090136503A1)
B1 was tested, and the EC50 [1] was 0.08 µg/mL, the “Max MFI (at 90 µg/mL)” value [1] was 3480 MFI and the EC50 [2] was 0.06 µg/mL. The “Max MFI (at 90 µg/mL)” value [2] was 3620 MFI, the EC50 [3] was 0.04 µg/mL and the “Max MFI (at 90 µg/mL)” value [3] was 3750 MFI. For the same binder, the “EC50 (read off the curve)” value [4] was about 0.05 µg/mL.

B2: BisG1-b12-FEAL/DR4-T1014A04-FEAR (bispecific antibody, human IgG1, kappa, lambda)
heavy 1: QVQLVQSGAEVKKPGASVKVSCQASGYRFSNFVIHWVRQAPGQRFEWMGWINPYNGNKEFSAKFQDRVTFTADTSANTAYMELRSLRSADTAVYYCARVGPYSWDDSPQDNYYMDVWGKGTTVIVSSASTKGPSVFPLAPSSKSTSGGTAALGCLVKDYFPEPVTVSWNSGALTSGVHTFPAVLQSSGLYSLSSVVTVPSSSLGTQTYICNVNHKPSNTKVDKRVEPKSCDKTHTCPPCPAPEFEGGPSVFLFPPKPKDTLMISRTPEVTCVVVAVSHEDPEVKFNWYVDGVEVHNAKTKPREEQYNSTYRVVSVLTVLHQDWLNGKEYKCKVSNKALPAPIEKTISKAKGQPREPQVYTLPPSREEMTKNQVSLTCLVKGFYPSDIAVEWESNGQPENNYKTTPPVLDSDGSFLLYSKLTVDKSRWQQGNVFSCSVMHEALHNHYTQKSLSLSPG
light 1: EIVLTQSPGTLSLSPGERATFSCRSSHSIRSRRVAWYQHKPGQAPRLVIHGVSNRASGISDRFSGSGSGTDFTLTITRVEPEDFALYYCQVYGASSYTFGQGTKLERKRTVAAPSVFIFPPSDEQLKSGTASVVCLLNNFYPREAKVQWKVDNALQSGNSQESVTEQDSKDSTYSLSSTLTLSKADYEKHKVYACEVTHQGLSSPVTKSFNRGEC
heavy 2: EVQLVQSGADVKRPGASVKVSCKISGDSFNAYFIHWVRQAPGQGLEWMGWFNPDSGTADSAQKFHGRVTMTRDTSSSTAFLELSRLRSDDTAVYYCVRQHRGNTFAPWGRGTMVTVSSASTKGPSVFPLAPSSKSTSGGTAALGCLVKDYFPEPVTVSWNSGALTSGVHTFPAVLQSSGLYSLSSVVTVPSSSLGTQTYICNVNHKPSNTKVDKRVEPKSCDKTHTCPPCPAPEFEGGPSVFLFPPKPKDTLMISRTPEVTCVVVAVSHEDPEVKFNWYVDGVEVHNAKTKPREEQYNSTYRVVSVLTVLHQDWLNGKEYKCKVSNKALPAPIEKTISKAKGQPREPQVYTLPPSREEMTKNQVSLTCLVKGFYPSDIAVEWESNGQPENNYKTTPPVLDSDGSFFLYSRLTVDKSRWQQGNVFSCSVMHEALHNHYTQKSLSLSPG
light 2: QSVLTQPPSASGSPGQSVTISCTGTTSDVGGYNYVSWYQQHPGKAPKLMIYGVNQRPSGVPDRFSGSKSGNTASLTVSGLQAEDEADYYCSSYAGSNNWVFGGGTKLTVLGQPKAAPSVTLFPPSSEELQANKATLVCLISDFYPGAVTVAWKADSSPVKAGVETTTPSKQSNNKYAASSYLSLTPEQWKSHRSYSCQVTHEGSTVEKTVAPTECS
notes: Fab-arm exchange of IgG1-b12-FEAL and IgG1-DR4-T1014A04-FEAR
Binder B2 has an EC50 [5] of 5.35 µg/mL, an EC50 [6] of 4.33 µg/mL and an EC50 [7] of 6.36 µg/mL.
